From paper PMC11452662, “Biofunctionalized dissolvable hydrogel microbeads enable efficient characterization of native protein complexes” (Nature Communications, 2024)
Values joined by “and” are separate entries in the source; they are usually repeats but may differ in a detail not shown here. Equal entries are not always repeated.

T1: Thermoplasma acidophilum 20S proteasome β subunit with Twin-Strep-tag (Thermoplasma acidophilum, UniProt P28061 9-211)
T1 construct: 20S proteasome β subunit of Thermoplasma acidophilum; not shown: Twin-Strep-tag, C-terminal, kept
T1 sequence (looked up): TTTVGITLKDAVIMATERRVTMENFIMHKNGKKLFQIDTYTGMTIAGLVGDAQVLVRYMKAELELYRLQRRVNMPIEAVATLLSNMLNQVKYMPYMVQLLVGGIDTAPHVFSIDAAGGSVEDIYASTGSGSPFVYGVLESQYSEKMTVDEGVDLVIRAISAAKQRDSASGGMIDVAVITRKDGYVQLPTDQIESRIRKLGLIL


Legend:
[1] = target: Hp of the Hp(2)Ab(1) complex; experiment: native MS; tandem MS with increasing collisional energy of the bait-target complex Hp(2)Hb(4)Ab(1), Hb as bait
[2] = target: T1, Thermoplasma acidophilum 20S proteasome …; experiment: native MS; 20S purified with Strep-Tactin SNAP beads, α and β coded in the same plasmid; 150 mM ammonium acetate; settings: partners not purified
[3] = target: the molecule itself; experiment: native MS; 20S purified with Strep-Tactin SNAP beads, α and β expressed from two separate plasmids; 150 mM ammonium acetate

Molecule	stoichiometry N [1]	stoichiometry N [2]	stoichiometry N [3]
Hp of the Hp(2)Ab(1) complex	2		
Thermoplasma acidophilum 20S proteasome α subunit, unmodified (natural protein, UniProt P25156 1-233, looked up, 20S proteasome α subunit of Thermoplasma acidophilum; The results call this α subunit unmodified; the methods say that the constructs were tagged at the C-termini with either a Twin-Strep-tag or a His tag) MQQGQMAYDRAITVFSPDGRLFQVEYAREAVKKGSTALGMKFANGVLLISDKKVRSRLIEQNSIEKIQLIDDYVAAVTSGLVADARVLVDFARISAQQEKVTYGSLVNIENLVKRVADQMQQYTQYGGVRPYGVSLIFAGIDQIGPRLFDCDPAGTINEYKATAIGSGKDAVVSFLEREYKENLPEKEAVTLGIKALKSSLEEGEELKAPEIASITVGNKYRIYDQEEVKKFL		28 subunits in the complex of α and β	7 and 14
